This assay addresses SARS-CoV-2 (2019-nCoV) spike (S) protein RBD-His recombinant protein (SARS-CoV-2, UniProt P0DTC2). Nature of the assay: FRET or BRET.

B1: hACE2 mimic peptide beacon (COVID19-PEB) (peptide)
peptide: IEEQAKTFLDKFNHEAEDLFYQSSLASWK
On to B1, for which the binding result is on record as “binds”.

For the origin of these results see publication PMC8969299 (Chemical Engineering Journal, 2022).
